Several values for one entry are separate records, joined by “and”; a condition that tells them apart may be missing. Equal values may be shown once.
Experiments:
[1] = biological target: Antigen B subunit 1 (AgB1), synthetic (Echinococcus granulosus); assay: cross-linking; each single subunit with a 100-fold molar excess of EDC; SDS-PAGE in reducing and nonreducing conditions; bands digested in situ, LC-MS/MS, cross-linked peptides identified with StavroX
[2] = biological target: Antigen B subunit 1 (AgB1), synthetic (Echinococcus granulosus); assay: cross-linking; subunits with a 10-fold or a 100-fold excess of EDC; SDS-PAGE under reducing conditions; western immunoblotting with WSH serum
[3] = biological target: Antigen B subunit 2 (AgB2), synthetic (Echinococcus granulosus); assay: SEC; single synthetic subunits; 50 mM sodium phosphate, 150 mM NaCl, pH 7.4; AKTA Explorer 10; size by calibration with standard proteins (apparent molecular weight)
[4] = biological target: the molecule itself; assay: as above

Q: For “Antigen B subunit 1 (AgB1), synthetic (natural protein)”, which stoichiometry N [1] is on record?
A: 2 and 3 and 4

Q: What about the stoichiometry N [2] of the same molecule?
A: 3 and 4 and 5

Q: With “Antigen B subunit 2 (AgB2), synthetic (natural protein)” as the molecule, how does the stoichiometry N [3] read?
A: 6.8 units

B1: Antigen B subunit 4 (AgB4), synthetic (natural protein)
chain: KAEPERCKCLIMRKLGEIRDFFRSDPLGQKLAALGRDLTAICQKLQLKVHEVLKKYVKDLLEEEDEDDLK
Q: For B1, which “stoichiometry N” value [4] is on record?
A: 6

B2: Antigen B subunit 3 (AgB3), synthetic (natural protein)
chain: DDDDEVTKTKKGVMKAISEIKHFFQSDPLGKKLVEVMKDVASVCEMVRKKARMALKEYVRKLVKEDE
Q: Which “stoichiometry N” value [4] does the source give for B2 here?
A: 6.6 units

Source: publication PMC5905600, “Structural and Immunodiagnostic Characterization of Synthetic Antigen B Subunits From Echinococcus granulosus and Their Evaluation as Target Antigens for Cyst Viability Assessment” (Clinical Infectious Diseases: An Official Publication of …, 2017)
